Assay results published in paper PMC9025429.

Target: N36 peptide (HIV-1)
Test: ELISA; competition ELISA of 6-HB formation: plate coated with the 6-HB-specific mAb NC-1; inhibitor at 0.312-20 uM with N36 (final 1 uM) and biotin-C34 (final 2 uM) in PBS, 37 °C, 1 h; streptavidin-HRP detection

N36 peptide (HIV-1), sequence (P03375 546-581 limits assumed): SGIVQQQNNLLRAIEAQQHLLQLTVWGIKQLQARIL

C10-T1144 (peptide)
IC50: 2420 nM
